According to patent US20230407373A1 (priority 2020, published 2023):
Where two headings read alike, the source gives them in different places.

B1: HRNPA2B1 (protein, UniProt P22626 1-353, looked up)
Heterogeneous nuclear …: MEKTLETVPLERKKREKEQFRKLFIGGLSFETTEESLRNYYEQWGKLTDCVVMRDPASKRSRGFGFVTFSSMAEVDAAMAARPHSIDGRVVEPKRAVAREESGKPGAHVTVKKLFVGGIKEDTEEHHLRDYFEEYGKIDTIEIITDRQSGKKRGFGFVTFDDHDPVDKIVLQKYHTINGHNAEVRKALSRQEMQEVQSSRSGRGGNFGFGDSRGGGGNFGPGPGSNFRGGSDGYGSGRGFGDGYNGYGGGPGGGNFGGSPGYGGGRGGYGGGGPGYGNQGGGYGGGYDNYGGGNYGSGNYNDFGNYNQQPSNYGPMKSGNFGGSRNMGGPYGGGNYGPGGSGGSGGYGGRSRY
B2: RAVER1 (protein, UniProt Q8IY67 2-606, looked up)
Ribonucleoprotein PTB-binding …: AADVSVTHRPPLSPKSGAEVEAGDAAERRAPEEELPPLDPEEIRKRLEHTERQFRNRRKILIRGLPGDVTNQEVHDLLSDYELKYCFVDKYKGTAFVTLLNGEQAEAAINAFHQSRLRERELSVQLQPTDALLCVANLPPSLTQQQFEELVRPFGSLERCFLVYSERTGQSKGYGFAEYMKKDSAARAKSDLLGKPLGPRTLYVHWTDAGQLTPALLHSRCLCVDRLPPGFNDVDALCRALSAVHSPTFCQLACGQDGQLKGFAVLEYETAEMAEEAQQQADGLSLGGSHLRVSFCAPGPPGRSMLAALIAAQATALNRGKGLLPEPNILQLLNNLGPSASLQLLLNPLLHGSAGGKQGLLGAPPAMPLLNGPALSTALLQLALQTQGQKKPGILGDSPLGALQPGAQPANPLLGELPAGGGLPPELPPRRGKPPPLLPSVLGPAGGDREALGLGPPAAQLTPPPAPVGLRGSGLRGPLSHFYSGSPTSYFTSGLQAGLKQSHLSKAIGSSPLGSGEGLLGLSPGPNGHSHLLKVRAGGGDMQGWEAPAPQRPLTRPALPSVSRPHWAARNAALPTCCPRPSPAQKAAMWASTPRASAATTRTPT
B3: SF3B2 (protein, UniProt Q13435 1-895, looked up)
Splicing factor 3B subunit 2: MATEHPEPPKAELQLPPPPPPGHYGAWAAQELQAKLAEIGAPIQGNREELVERLQSYTRQTGIVLNRPVLRGEDGDKAAPPPMSAQLPGIPMPPPPLGLPPLQPPPPPPPPPPGLGLGFPMAHPPNLGPPPPLRVGEPVALSEEERLKLAQQQAALLMQQEERAKQQGDHSLKEHELLEQQKRAAVLLEQERQQEIAKMGTPVPRPPQDMGQIGVRTPLGPRVAAPVGPVGPTPTVLPMGAPVPRPRGPPPPPGDENREMDDPSVGPKIPQALEKILQLKESRQEEMNSQQEEEEMETDARSSLGQSASETEEDTVSVSKKEKNRKRRNRKKKKKPQRVRGVSSESSGDREKDSTRSRGSDSPAADVEIEYVTEEPEIYEPNFIFFKRIFEAFKLTDDVKKEKEKEPEKLDKLENSAAPKKKGFEEEHKDSDDDSSDDEQEKKPEAPKLSKKKLRRMNRFTVAELKQLVARPDVVEMHDVTAQDPKLLVHLKATRNSVPVPRHWCFKRKYLQGKRGIEKPPFELPDFIKRTGIQEMREALQEKEEQKTMKSKMREKVRPKMGKIDIDYQKLHDAFFKWQTKPKLTIHGDLYYEGKEFETRLKEKKPGDLSDELRISLGMPVGPNAHKVPPPWLIAMQRYGPPPSYPNLKIPGLNSPIPESCSFGYHAGGWGKPPVDETGKPLYGDVFGTNAAEFQTKTEEEEIDRTPWGELEPSDEESSEEEEEEESDEDKPDETGFITPADSGLITPGGFSSVPAGMETPELIELRKKKIEEAMDGSETPQLFTVLPEKRTATVGGAMMGSTHIYDMSTVMSRKGPAPELQGVEVALAPEELELDPMAMTQKYEEHVREQQAQVEKEDFSDMVAEHAAKQKQKKRKAQPQDSRGGSKKYKEFKF
B4: PDIA6: host protein, UniProt Q15084 (protein, UniProt Q15084 20-440, looked up)
Protein disulfide-isomerase A6: LYSSSDDVIELTPSNFNREVIQSDSLWLVEFYAPWCGHCQRLTPEWKKAATALKDVVKVGAVDADKHHSLGGQYGVQGFPTIKIFGSNKNRPEDYQGGRTGEAIVDAALSALRQLVKDRLGGRSGGYSSGKQGRSDSSSKKDVIELTDDSFDKNVLDSEDVWMVEFYAPWCGHCKNLEPEWAAAASEVKEQTKGKVKLAAVDATVNQVLASRYGIRGFPTIKIFQKGESPVDYDGGRTRSDIVSRALDLFSDNAPPPELLEIINEDIAKRTCEEHQLCVVAVLPHILDTGAAGRNSYLEVLLKLADKYKKKMWGWLWTEAGAQSELETALGIGGFGYPAMAAINARKMKFALLKGSFSEQGINEFLRELSFGRGSTAPVGGGAFPTIVEREPWDGRDGELPVEDDIDLSDVELDDLGKDEL
B5: ESRP2 (protein, UniProt Q9H6T0 1-727, looked up)
Epithelial splicing …: MTPPPPPPPPPGPDPAADPAADPCPWPGSLVVLFGATAGALGRDLGSDETDLILLVWQVVEPRSRQVGTLHKSLVRAEAAALSTQCREASGLSADSLARAEPLDKVLQQFSQLVNGDVALLGGGPYMLCTDGQQLLRQVLHPEASRKNLVLPDMFFSFYDLRREFHMQHPSTCPARDLTVATMAQGLGLETDATEDDFGVWEVKTMVAVILHLLKEPSSQLFSKPEVIKQKYETGPCSDSTVPCPYSSKADVVDSETVVRARGLPWQSSDQDVARFFKGLNVARGGVALCLNAQGRRNGEALIRFVDSEQRDLALQRHKHHMGVRYIEVYKATGEEFVKIAGGTSLEVARFLSREDQVILRLRGLPFSAGPTDVLGFLGPECPVTGGTEGLLFVRHPDGRPTGDAFALFACEELAQAALRRHKGMLGKRYIELFRSTAAEVQQVLNRYASGPLLPTLTAPLLPIPFPLAPGTGRDCVRLRGLPYTATIEDILSFLGEAAADIRPHGVHMVLNQQGRPSGDAFIQMTSAERALAAAQRCHKKVMKERYVEVVPCSTEEMSRVLMGGTLGRSGMSPPPCKLPCLSPPTYTTFQATPTLIPTETAALYPSSALLPAARVPAAPTPVAYYPGPATQLYLNYTAYYPSPPVSPTTVGYLTTPTAALASAPTSVLSQSGALVRMQGVPYTAGMKDLLSVFQAYQLPADDYTSLMPVGDPPRTVLQAPKEWVCL
B6: RRBP1: host protein, UniProt Q9P2E9 (protein, UniProt Q9P2E9 1-1410, looked up)
Ribosome-binding protein 1: MDIYDTQTLGVVVFGGFMVVSAIGIFLVSTFSMKETSYEEALANQRKEMAKTHHQKVEKKKKEKTVEKKGKTKKKEEKPNGKIPDHDPAPNVTVLLREPVRAPAVAVAPTPVQPPIIVAPVATVPAMPQEKLASSPKDKKKKEKKVAKVEPAVSSVVNSIQVLTSKAAILETAPKEVPMVVVPPVGAKGNTPATGTTQGKKAEGTQNQSKKAEGAPNQGRKAEGTPNQGKKTEGTPNQGKKAEGTPNQGKKAEGTPNQGKKAEGAQNQGKKVDTTPNQGKKVEGAPTQGRKAEGAQNQAKKVEGAQNQGKKAEGAQNQGKKGEGAQNQGKKAEGAQNQGKKAEGAQNQGKKAEGAQNQGKKAEGAQNQGKKAEGAQNQGKKAEGAQNQGKKVEGAQNQGKKAEGAQNQGKKAEGAQNQGKKAEGAQNQGKKAEGAQNQGKKAEGAQNQGKKAEGAQNQGKKAEGAQNQGKKVEGAQNQGKKAEGAQNQGKKAEGAQNQGKKAEGAQNQGQKGEGAQNQGKKTEGAQGKKAERSPNQGKKGEGAPIQGKKADSVANQGTKVEGITNQGKKAEGSPSEGKKAEGSPNQGKKADAAANQGKKTESASVQGRNTDVAQSPEAPKQEAPAKKKSGSKKKGEPGPPDADGPLYLPYKTLVSTVGSMVFNEGEAQRLIEILSEKAGIIQDTWHKATQKGDPVAILKRQLEEKEKLLATEQEDAAVAKSKLRELNKEMAAEKAKAAAGEAKVKKQLVAREQEITAVQARMQASYREHVKEVQQLQGKIRTLQEQLENGPNTQLARLQQENSILRDALNQATSQVESKQNAELAKLRQELSKVSKELVEKSEAVRQDEQQRKALEAKAAAFEKQVLQLQASHRESEEALQKRLDEVSRELCHTQSSHASLRADAEKAQEQQQQMAELHSKLQSSEAEVRSKCEELSGLHGQLQEARAENSQLTERIRSIEALLEAGQARDAQDVQASQAEADQQQTRLKELESQVSGLEKEAIELREAVEQQKVKNNDLREKNWKAMEALATAEQACKEKLLSLTQAKEESEKQLCLIEAQTMEALLALLPELSVLAQQNYTEWLQDLKEKGPTLLKHPPAPAEPSSDLASKLREAEETQSTLQAECDQYRSILAETEGMLRDLQKSVEEEEQVWRAKVGAAEEELQKSRVTVKHLEEIVEKLKGELESSDQVREHTSHLEAELEKHMAAASAECQNYAKEVAGLRQLLLESQSQLDAAKSEAQKQSDELALVRQQLSEMKSHVEDGDIAGAPASSPEAPPAEQDPVQLKTQLEWTEAILEDEQTQRQKLTAEFEEAQTSACRLQEELEKLRTAGPLESSETEEASQLKERLEKEKKLTSDLGRAATRLQELLKTTQEQLAREKDTVKKLQEQLEKAEDGSSSKEGTSV
B7: LUC7L2: host protein, UniProt Q9Y383 (protein, UniProt Q9Y383 1-392, looked up)
Putative RNA-binding protein …: MSAQAQMRAMLDQLMGTSRDGDTTRQRIKFSDDRVCKSHLLNCCPHDVLSGTRMDLGECLKVHDLALRADYEIASKEQDFFFELDAMDHLQSFIADCDRRTEVAKKRLAETQEEISAEVAAKAERVHELNEEIGKLLAKVEQLGAEGNVEESQKVMDEVEKARAKKREAEEVYRNSMPASSFQQQKLRVCEVCSAYLGLHDNDRRLADHFGGKLHLGFIEIREKLEELKRVVAEKQEKRNQERLKRREEREREEREKLRRSRSHSKNPKRSRSREHRRHRSRSMSRERKRRTRSKSREKRHRHRSRSSSRSRSRSHQRSRHSSRDRSRERSKRRSSKERFRDQDLASCDRDRSSRDRSPRDRDRKDKKRSYESANGRSEDRRSSEEREAGEI

Tests used:
Type in all cases: binding
[1] = test system: SARS-CoV-2 gRNA and sgRNAs
gRNA of HCoV-OC43 = conditions: for target (spectral count, OC43 Probe I RNP capture) / background (spectral count, no-probe control): type n_48_v: 48 hours post-infection; for target (spectral count, OC43 Probe I RNP capture): infected cells, unweighted spectral count; for background (spectral count, no-probe control): no-probe control on infected cells; for target (spectral count) / background (spectral count): type g_36_m, 36 hpi, Probe I; for target (spectral count): HCoV-OC43-infected HCT-8 cells; for background (spectral count): uninfected-probe control
HCoV-OC43 gRNA and sgRNA = conditions: for target (unweighted spectral count, OC43 Probe II) / background (unweighted spectral count, no-probe control): type n_48_v, 48 hpi; for target (unweighted spectral count, OC43 Probe II): OC43 Probe II capture on infected cells; for background (unweighted spectral count, no-probe control): no-probe control on infected cells; for target (unweighted spectral count, OC43 Probe II capture): tested against no-probe control, FDR<10%; for target (spectral count) / background (spectral count): type s_36_m, Probe II; for target (spectral count): HCoV-OC43-infected HCT-8 cells; for background (spectral count): uninfected-probe control

Molecule	target (unweighted spectral count in RNP capture) ([1]; Probe II capture, […], LC-MS/MS LFQ)	background (unweighted spectral count in control) ([1]; no-probe control pull-down, used as background for Probe II)	target (spectral count, OC43 Probe I RNP capture) (gRNA of HCoV-OC43)	background (spectral count, no-probe control) (gRNA of HCoV-OC43)	target (unweighted spectral count, OC43 Probe II) (HCoV-OC43 gRNA and sgRNA)	background (unweighted spectral count, no-probe control) (HCoV-OC43 gRNA and sgRNA)	target (spectral count) (gRNA of HCoV-OC43)	background (spectral count) (gRNA of HCoV-OC43)	target (unweighted spectral count, OC43 Probe II capture) (HCoV-OC43 gRNA and sgRNA; 24 hpi, type n_24_v)	target (unweighted spectral count, OC43 Probe II capture) (HCoV-OC43 gRNA and sgRNA; 36 hpi, type n_36_v)	target (spectral count) (HCoV-OC43 gRNA and sgRNA; 36 hpi)	background (spectral count) (HCoV-OC43 gRNA and sgRNA; 36 hpi)
B1	88	1										
B2			5	1	5	1						
B3			5	1	5	1						
B4							12	1	4	7	7	1
B5			6	1	8	1			5	6		
B6			17	5	32	5	22	1	10	16	16	1
B7							9	1	4			
